Experimental data taken from the supplement of paper PMC9112550, “Optimization of the antimicrobial peptide Bac7 by deep mutational scanning” (BMC Biology, 2022).

test system: Escherichia coli TOP10; assay: shrunken log2 fold change of peptide-encoding DNA abundance (4.5 h post-induction vs induction); higher = less antimicrobial activity (less host growth inhibition); details: time post-induction: 4.5 h; library: site-saturation at positions 5, 18, 19, 20
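Also: peptides expressed intracellularly from a pBAD plasmid library in pooled LB shake-flask culture, induced with 0.3% L-arabinose, DNA abundance read by NGS, three biological replicates, DESeq2 with apeglm shrinkage.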

Compared with RRIRCRPPRLPRPRPRPASQPRP, RRIRFRPPRLPRPRPRPNEHPRP is lower in “shrunken log2 fold change” value: -0.0515 for the first, -0.525 for the second.

RRIRLRPPRLPRPRPRPTEHPRP and RRIRQRPPRLPRPRPRPNFFPRP are within 0.2 log units of each other in “shrunken log2 fold change” value: 0.121 for the first, 0.313 for the second.

Compared with RRIRERPPRLPRPRPRPTDMPRP, RRIRVRPPRLPRPRPRPLMWPRP is higher in “shrunken log2 fold change” value: -0.375 for the first, 0.157 for the second.

First: RRIRTRPPRLPRPRPRPIVDPRP
Second: RRIRVRPPRLPRPRPRPEQSPRP
The “shrunken log2 fold change” value of the first is lower: 0.0147 for the first, 0.362 for the second.

Compared with RRIRLRPPRLPRPRPRPVSSPRP, RRIRWRPPRLPRPRPRPIQCPRP is lower in “shrunken log2 fold change” value: 0.242 for the first, -0.0122 for the second.

First: RRIRYRPPRLPRPRPRPPRPPRP
Second: RRIRVRPPRLPRPRPRPHMDPRP
The “shrunken log2 fold change” value of the first is higher: 0.637 for the first, -0.449 for the second.

RRIRDRPPRLPRPRPRPNEMPRP and RRIRPRPPRLPRPRPRPCFPPRP are within 0.2 log units of each other in “shrunken log2 fold change” value: 0.00902 for the first, -0.0413 for the second.

Compared with RRIRARPPRLPRPRPRPMGQPRP, RRIRCRPPRLPRPRPRPNCMPRP is lower in “shrunken log2 fold change” value: 0.229 for the first, -0.369 for the second.

RRIRARPPRLPRPRPRPLFQPRP and RRIRVRPPRLPRPRPRPVCIPRP are within 0.2 log units of each other in “shrunken log2 fold change” value: 0.0426 for the first, -0.0826 for the second.

Going from RRIRKRPPRLPRPRPRPNNGPRP to RRIRHRPPRLPRPRPRPMKHPRP, the “shrunken log2 fold change” value rises from -0.324 to -0.0367.

Compared with RRIRDRPPRLPRPRPRPVWFPRP, RRIRMRPPRLPRPRPRPAWDPRP is lower in “shrunken log2 fold change” value: 1.26 for the first, 0.869 for the second.

Compared with RRIRARPPRLPRPRPRPFWQPRP, RRIRHRPPRLPRPRPRPKKIPRP is lower in “shrunken log2 fold change” value: 0.0762 for the first, -0.129 for the second.

First: RRIRFRPPRLPRPRPRPEAWPRP
Second: RRIRMRPPRLPRPRPRPMIWPRP
The “shrunken log2 fold change” value of the first is lower: 0.00383 for the first, 0.237 for the second.

First: RRIRVRPPRLPRPRPRPHMIPRP
Second: RRIRTRPPRLPRPRPRPSPTPRP
The “shrunken log2 fold change” value of the first is lower: -0.463 for the first, 0.0477 for the second.

RRIRKRPPRLPRPRPRPCQGPRP and RRIRPRPPRLPRPRPRPVHIPRP are within 0.2 log units of each other in “shrunken log2 fold change” value: -0.141 for the first, -0.208 for the second.

Compared with RRIRVRPPRLPRPRPRPAQMPRP, RRIRSRPPRLPRPRPRPTQVPRP is higher in “shrunken log2 fold change” value: 0.126 for the first, 0.839 for the second.

Going from RRIRDRPPRLPRPRPRPGMGPRP to RRIRSRPPRLPRPRPRPHHKPRP, the “shrunken log2 fold change” value falls from 0.645 to -0.564.

Going from RRIRVRPPRLPRPRPRPHIYPRP to RRIRARPPRLPRPRPRPEAKPRP, the “shrunken log2 fold change” value rises from -0.519 to 0.73.

RRIRLRPPRLPRPRPRPVTSPRP and RRIRHRPPRLPRPRPRPYPMPRP are within 0.2 log units of each other in “shrunken log2 fold change” value: -0.0743 for the first, -0.2 for the second.

Compared with RRIRSRPPRLPRPRPRPSHRPRP, RRIRTRPPRLPRPRPRPMRLPRP is higher in “shrunken log2 fold change” value: -0.41 for the first, -0.0194 for the second.

Going from RRIRLRPPRLPRPRPRPYLIPRP to RRIRVRPPRLPRPRPRPDMLPRP, the “shrunken log2 fold change” value rises from -0.274 to -0.024.

RRIRTRPPRLPRPRPRPTWYPRP and RRIRDRPPRLPRPRPRPFCYPRP are within 0.2 log units of each other in “shrunken log2 fold change” value: -0.0546 for the first, 0.0322 for the second.

First: RRIRRRPPRLPRPRPRPDEDPRP
Second: RRIRVRPPRLPRPRPRPCSIPRP
The “shrunken log2 fold change” value of the first is higher: 0.219 for the first, -0.0267 for the second.

First: RRIRHRPPRLPRPRPRPSYPPRP
Second: RRIRARPPRLPRPRPRPPHHPRP
The “shrunken log2 fold change” value of the first is lower: -0.868 for the first, 0.675 for the second.

RRIRWRPPRLPRPRPRPQECPRP and RRIRSRPPRLPRPRPRPPSCPRP are within 0.2 log units of each other in “shrunken log2 fold change” value: -0.0185 for the first, -0.0434 for the second.

First: RRIRYRPPRLPRPRPRPDVNPRP
Second: RRIRVRPPRLPRPRPRPQRYPRP
The “shrunken log2 fold change” value of the first is higher: -0.0115 for the first, -0.883 for the second.

RRIRCRPPRLPRPRPRPCRQPRP and RRIRLRPPRLPRPRPRPLKYPRP are within 0.2 log units of each other in “shrunken log2 fold change” value: 0.0584 for the first, -0.0803 for the second.

RRIRWRPPRLPRPRPRPHCQPRP and RRIRARPPRLPRPRPRPYHSPRP are within 0.2 log units of each other in “shrunken log2 fold change” value: -0.102 for the first, -0.237 for the second.

First: RRIRARPPRLPRPRPRPGESPRP
Second: RRIRWRPPRLPRPRPRPRSAPRP
The “shrunken log2 fold change” value of the first is lower: 0.014 for the first, 0.294 for the second.

RRIRERPPRLPRPRPRPMVNPRP and RRIRYRPPRLPRPRPRPKWAPRP are within 0.2 log units of each other in “shrunken log2 fold change” value: -0.0701 for the first, -0.0552 for the second.

Compared with RRIRNRPPRLPRPRPRPQGMPRP, RRIRVRPPRLPRPRPRPWYGPRP is lower in “shrunken log2 fold change” value: -0.0261 for the first, -0.367 for the second.

Compared with RRIRRRPPRLPRPRPRPNHAPRP, RRIRPRPPRLPRPRPRPSVDPRP is lower in “shrunken log2 fold change” value: 0.345 for the first, -0.187 for the second.

Going from RRIRCRPPRLPRPRPRPTDHPRP to RRIRTRPPRLPRPRPRPFYQPRP, the “shrunken log2 fold change” value falls from -0.257 to -0.65.

RRIRFRPPRLPRPRPRPIPWPRP and RRIRQRPPRLPRPRPRPGTKPRP are within 0.2 log units of each other in “shrunken log2 fold change” value: -0.14 for the first, 0.0136 for the second.

Going from RRIRWRPPRLPRPRPRPVVKPRP to RRIRTRPPRLPRPRPRPRDAPRP, the “shrunken log2 fold change” value rises from -0.322 to 0.881.

Going from RRIRWRPPRLPRPRPRPQWPPRP to RRIRSRPPRLPRPRPRPGEYPRP, the “shrunken log2 fold change” value falls from 0.158 to -0.275.

Compared with RRIRFRPPRLPRPRPRPIYEPRP, RRIRNRPPRLPRPRPRPSFSPRP is higher in “shrunken log2 fold change” value: -0.632 for the first, -0.322 for the second.

With RRIRSRPPRLPRPRPRPIEQPRP the “shrunken log2 fold change” value was -0.0141.
